Experiments:
[1] = biological target: T1, GST-Obsc_(6231–6260) (rat); test: SPR
T1 chain: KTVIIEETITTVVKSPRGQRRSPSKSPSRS

[2] = biological target: GST-Obsc_(6316–6345) (rat); test: SPR

Kd [1]: 384 ± 53 nM
Kd [2]: 133 nM
koff [2]: 0.000792 s⁻¹
kon [2]: 6290 M⁻¹ s⁻¹
B1: MBP-sAnk1_(29–155) (domain or fragment)
chain: VKGSLCFVLKHIHQELDKELGESEGLSDDEETISTRVVRRRVFLKGDELQNIPGEQVTEEQFTDEQGNIVTKKIIRKVVRQVDSSGAIDTQQHEEVELRGSGLQPDLIEGRKGAQIVKRASLKRGKQ

Source: PMC3000613 (Biochemistry, 2010)
